Measurements: the Human Domainome abundance scans (Beltran et al. 2025)

B1: Peripheral plasma membrane protein CASK, residues 488 to 569; numbered along this chain, O14936 (parent)
chain: VRLVQFQKNTDEPMGITLKMNELNHCIVARIMHGGMIHRQGTLHVGDEIREINGISVANQTVEQLQKMLREMRGSITFKIVP

Variants of: B1
Assay: abundance fitness (aPCA) (normalised: wild type 0, dead -1); higher = more abundant; growth selection in yeast, the domain comes from the species named
Settings: Homo sapiens

Abundance fitness: each site, then its substitutions
E63: S -0.035 | V -0.098 | Y -0.079 | F -0.023 | W -0.123 | N -0.043 | R -0.121 | T -0.109 | Q -0.009 | M -0.13 | I -0.108 | A -0.048 | G -0.027 | C -0.08 | L -0.092
V62: F -0.238 | P -0.032 | H -0.131 | I -0.025 | K -0.114 | Y -0.172 | W -0.154 | E 0.015 | D -0.031 | Q -0.068 | M -0.052 | R -0.1 | A -0.007 | C -0.044 | T -0.007 | S 0.003 | N 0.01 | G -0.067 | L -0.018
E51: L -0.442 | T -0.301 | S 0.102 | V -0.714 | C -0.34 | A -0.096 | G -0.048 | F -0.441 | R -0.264
Q66: H -0.043 | S -0.012 | L -0.094 | I -0.094 | G -0.038 | W -0.228 | N -0.016 | R -0.104 | V -0.141 | K -0.128 | E 0.018 | T -0.012 | M -0.012 | A -0.04 | F -0.236 | P -0.521 | C -0.055 | Y -0.038
Q64: I 0.003 | M -0.042 | R -0.066 | V -0.061 | P -0.334 | D 0.007 | C -0.004 | L -0.08 | N -0.025 | W -0.093 | F 0.007 | S -0.021 | G -0.064 | T -0.025 | Y 0.005 | E -0.008 | K -0.018
I55: W -0.074 | R 0.007 | L -0.041 | C 0.026 | A -0.016 | H -0.04 | M 0.008 | F -0.065 | V -0.035 | K -0.001 | G -0.124 | P -1.05 | T -0.003 | S -0.033 | D -0.035 | Q 0.035 | E 0.026 | N -0.113 | Y -0.061
K67: V 0.002 | Q -0.054 | F -0.023 | Y -0.064 | I -0.06 | M -0.029 | S -0.038 | G -0.014 | H 0.029 | P -0.292 | N 0.003 | T 0.001 | C 0.013 | W -0.119 | E 0.009 | D 0.02 | A -0.022
M68: Q -0.014 | C -0.026 | G -0.048 | K 0 | F -0.028 | L -0.032 | P -0.647 | R 0.002 | H -0.019 | W -0.049 | A -0.02 | N -0.012 | Y -0.045 | S -0.004 | E -0.038 | D 0.054 | V -0.026 | I -0.068 | T -0.039
L69: C -0.093 | M -0.029 | G -0.443 | P -0.944 | A -0.355 | N -0.609 | E -0.537 | W -0.308 | Q -0.594 | V -0.038 | F -0.101 | D -0.73 | T -0.097 | Y -0.357 | K -0.9 | R -1 | I -0.08 | H -0.777
V57: P -0.041 | M -0.079 | W -0.854 | K -0.745 | H -0.818 | F -0.42 | S -0.158 | T 0.027 | N -0.809 | D -0.915 | C -0.046 | I 0.007 | G -0.758 | E -0.965 | Y -0.578 | R -0.973 | Q -0.8 | L -0.126 | A -0.061
L65: T 0.006 | E -0.889 | F -0.23 | H -0.402 | D -1.07 | C -0.048 | A -0.166 | Q -0.33 | M -0.057 | W -0.049 | S -0.183 | P -1.02 | G -0.817 | R -0.449 | K -0.878 | V 0.025 | N -0.318
N59: W -0.157 | R -0.09 | Q -0.09 | V -0.164 | I -0.324 | F -0.016 | E -0.001 | K -0.068 | S -0.045 | C -0.114 | M -0.099 | T 0.003 | D -0.038 | A -0.047 | H -0.006 | Y -0.1 | G 0.02
R50: Q -0.018 | S -0.079 | P -0.774 | N -0.054 | W -0.118 | Y -0.174 | T -0.028
I52: L -0.115 | T -0.141 | V -0.036 | R -0.649 | N -0.199
Q60: Y -0.022 | F 0.013 | E -0.085 | R -0.007 | D -0.154 | N 0.005 | M -0.047 | C -0.01 | H -0.014 | A -0.045 | P -0.984 | V -0.118 | T -0.09 | W -0.063 | L -0.051 | S -0.042
A58: E 0.017 | D -0.037 | F -0.087 | W -0.104 | H -0.075 | T -0.017 | K 0.053 | V -0.025 | C -0.042 | S -0.035 | L -0.052 | P -0.327 | M -0.038 | G -0.01 | N -0.076 | I 0.02
N53: T -0.567 | W -0.972 | A -0.308 | I -0.8 | M -0.357 | P -0.719 | H -0.7 | G -0.188 | S -0.183 | Y -0.525 | E -0.327 | V -0.932 | C -0.208 | D -0.27 | R -0.529 | L -0.903 | K -0.816 | Q -0.186
G54: R -0.193 | E -0.076 | V -0.797 | N -0.16 | Q -0.085 | W -0.549 | T -0.17 | A -0.191 | S -0.071 | P -0.911 | F -0.043 | C -0.254 | M -0.299 | H -0.076 | Y -0.056 | L -0.636
T61: S -0.029 | F -0.457 | R -0.095 | H -0.074 | E -0.037 | C -0.129 | L -0.41 | V -0.329 | I -0.642 | N 0.011 | G -0.015 | Q -0.047 | W -0.853 | M -0.294 | A -0.084 | P -0.048 | K -0.054
S56: N -0.032 | T -0.028 | D 0.023 | P 0.009 | I -0.155 | H -0.09 | R -0.052 | F -0.229 | E -0.018 | K 0.02 | L -0.08 | Q -0.06 | G -0.02 | V -0.064 | A 0.014 | W -0.275 | M -0.102
R70: V -0.018 | P -0.229 | F 0.002 | C -0.029 | I -0.078 | D 0.038 | E 0.016 | L 0 | N -0.024 | T -0.02 | S -0.015 | H 0.02 | M -0.019 | G 0.006 | K -0.02 | Q -0.023 | Y -0.039 | A 0.012
